The record followed here is ChEMBL document CHEMBL2396531, “Hybrid molecule from O2-(2,4-dinitrophenyl)diazeniumdiolate and oleanolic acid: a glutathione S-transferase π-activated nitric oxide prodrug with selective anti-human hepatocellular carcinoma activity and improved stability” (J Med Chem, 2013).

Substrate in this data set: [H][C@]12CC=C3[C@]4([H])CC(C)(C)CC[C@]4(C(=O)O[C@@H]4O[C@H](CO)[C@H](O)[C@H](O)[C@H]4O)CC[C@@]3(C)[C@]1(C)CC[C@@]1([H])C(C)(C)[C@@H](OC(=O)CN3CCN(c4cc(O/N=[N+](/[O-])N(C)CCO)c([N+](=O)[O-])cc4[N+](=O)[O-])CC3)CC[C@]21C
Briefly: Activity at GSTpi (unknown origin) by Michaelis-Menten equation. It is filed as ADME, Homo sapiens.

B1: Glutathione S-transferase P (Homo sapiens) (protein)
chain: MPPYTVVYFPVRGRCAALRMLLADQGQSWKEEVVTVETWQEGSLKASCLYGQLPKFQDGDLTLYQSNTILRHLGRTLGLYGKDQQEAALVDMVNDGVEDLRCKYISLIYTNYEAGKDDYVKALPGQLKPFETLLSQNQGGKTFIVGDQISFADYNLLDLLLIHEVLAPGCLDAFPLLSAYVGRLSARPKLKAFLASPEYVNLPINGNGKQ
Regarding B1, the Km (as a rule, the concentration of substrate that gives half-maximal velocity) was found to be 342 µM; the Vmax – broadly, the rate approached at saturating substrate – was 15.1 µmol/min; the kcat – broadly, the maximal rate divided by the concentration of active sites – was found to be 6.95 s⁻¹; the catalytic efficiency (kcat/Km) (usually the second-order rate constant that governs catalysis at low substrate concentration) turned out to be 20100 M⁻¹ s⁻¹.
